Biological target: T1, Estrogen receptor alpha (ERα) (UniProt P03372 1-595, limits assumed)
T1 sequence (looked up): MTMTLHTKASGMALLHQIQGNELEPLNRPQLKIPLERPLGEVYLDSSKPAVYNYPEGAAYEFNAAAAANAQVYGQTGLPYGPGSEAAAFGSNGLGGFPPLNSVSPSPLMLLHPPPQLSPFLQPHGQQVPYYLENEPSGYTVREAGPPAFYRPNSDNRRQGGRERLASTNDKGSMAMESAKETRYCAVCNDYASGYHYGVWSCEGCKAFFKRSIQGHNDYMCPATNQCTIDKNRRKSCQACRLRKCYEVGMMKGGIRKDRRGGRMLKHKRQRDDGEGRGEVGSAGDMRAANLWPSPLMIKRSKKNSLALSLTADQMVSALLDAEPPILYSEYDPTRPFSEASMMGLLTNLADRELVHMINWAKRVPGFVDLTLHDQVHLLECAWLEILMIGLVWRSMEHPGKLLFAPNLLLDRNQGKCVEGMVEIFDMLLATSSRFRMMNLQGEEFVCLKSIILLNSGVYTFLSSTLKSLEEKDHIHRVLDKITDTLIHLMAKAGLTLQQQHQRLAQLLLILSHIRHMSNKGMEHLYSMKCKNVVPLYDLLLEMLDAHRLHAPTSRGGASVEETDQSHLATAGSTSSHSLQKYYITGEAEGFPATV
Test: cell-based or functional assay

B1: WBP2 Y192-231F phospho-defective double mutant, V5-tagged (other, not shown: small tags and cut ends)
chain: MALNKNHSEGGGVIVNNTESILMSYDHVELTFNDMKNVPEAFKGTKKGTVYLTPYRVIFLSKGKDAMQSFMMPFYLMKDCEIKQPVFGANYIKGTVKAEAGGGWEGSASYKLTFTAGGAIEFGQRMLQVASQASRGEVPSGAYGYSYMPSGAYVYPPPVANGMYPCPPGYPYPPPPPEFYPGPPMMDGAMGFVQPPPPPYPGPMEPPVSGPDVPSTPAAEAKAAEAAASAFYNPGNPHNVYMPTSQPPPPPYYPPEDKKTQ
  ERα reporter activity (ERE-luciferase), loss of coactivator activity relative to vector and compared to WBP2: ~60%
